# B1: OR4K15 (parent)
# chain: GUUAACGGUCAUAGGCCAUGGAAACUAGGAGCACCAUUUCGCUGCCAGUGAAGAAAUGAACAAAGAAAAUCUGGGCCAGGCAGGCAUCAAAAGAAAUAGUCUUGCGCUCAACCAGAAAGUCUGUAAUCAUUUUAAGGGUA
# Variants of: B1
# Assay: self-cleavage, relative activity (ratio to wild type); higher = more cleavage; in vitro, sequencing; the parent is a self-cleaving ribozyme
row,Variant,self-cleavage
1,G44A G84U,0.93
2,A116G U130A,0.51
3,A55U U124A,1.07
4,A63U U97C,1.05
5,A5G A55G,1.15
6,A30U U38C,1.69
7,G74A A117U,0.19
8,U12A U43A,1.63
9,A66U U131C,0.84
10,U2C A59U,0.98
11,A18G C42G,1.02
12,A22G A126G,0.85
13,G58U U124C,0.25
14,U38C A89U,2.15
15,A62C A69G,0.62
16,A67U A89G,1.74
17,A66G,1.09
18,A67G A96G,1.53
19,C16G A69G,1.02
20,A30U A52G,1.08
21,U26G A62G,1.02
22,U108G A116G,0
23,A114U U127C,0.03
24,U19A U124C,0.9

row,Variant,self-cleavage
1,A47G U72C,0.35
2,U19C A33G,0.62
3,A11U U127C,1.06
4,A62U A66G,1.58
5,A22G U39A,1.39
6,A52U U133C,1.72
7,U43A U70C,0.98
8,A5U A91U,1.64
9,A30U A91G,1.35
10,G48C A92U,1.18
11,A67G G136A,1.63
12,A22G A59C,1.17
13,A5G U124A,0.54
14,C16G A86G,0.51
15,U12C A118U,0.22
16,A67G A78U,0.33
17,A27G A69G,0.62
18,A24G A140U,0.89
19,A24G A27C,0.55
20,G21A U122G,2.56
21,C42G U43A,1.91
22,A95C A140G,0.98
23,U122C U124C,0.67
24,A11G A114G,0.46

row,Variant,self-cleavage
1,G14A A91G,1.67
2,A63G G84A,1.86
3,A96G A140U,1.93
4,U124G A125U,1.25
5,A89G U103C,0.55
6,A30U A33G,0.69
7,A27G A94G,1.48
8,A18G A89U,1.48
9,U39A U131C,1.59
10,U2C U39A,1.17
11,A60U A66G,1.63
12,A67U G106C,0.01
13,A36G G83U,0.41
14,G83A A86G,2.15
15,A94G A111U,0.06
16,U39C U132A,0.7
17,A11G G41U,1.91
18,A30U U72A,0.27
19,U57A U127C,0.65
20,G115A A118G,0.04
21,C105U A111U,0.01
22,U37C A140G,1.24
23,U19C A117C,0.71
24,A89G A116U,0.31

row,Variant,self-cleavage
1,A51G A68U,1.9
2,A4G G138A,0.99
3,A118C U132C,0.57
4,A52U G83A,1.64
5,A129U U132C,1.12
6,A64G U70A,0.97
7,U108A C121U,0
8,A18G A23G,1.01
9,A51U A55U,1.52
10,A11U A90G,0.51
11,A117G U130A,0.26
12,U39A C85G,1.07
13,C6U A117U,1.1
14,A51U U130A,1.4
15,A114G U127A,0.47
16,A51U A54G,1.36
17,A117G U131C,1.15
18,U70C U131C,0.65
19,U19A A117G,1.57
20,A126G U132C,1.07
21,A89G U124C,0.93
22,G21U A82G,0.98
23,A27G U39A,1.42
24,A94G A140G,1.53

row,Variant,self-cleavage
1,A18U U102C,0.98
2,A91G A92C,0.76
3,G29A U87C,1.7
4,A27G A60G,1.09
5,A96U G99A,0.44
6,A96G U120C,1.14
7,C40U U108A,0.01
8,U9G U102C,2.28
9,U38C G74A,0.33
10,C45U A114G,0.75
11,A95G A116U,0.45
12,A27G U87C,1.02
13,U108A,0.02
14,A111G A140G,0
15,A13U A64G,1.04
16,A94G A135G,0.43
17,A52G U130A,1.08
18,A13G G41U,1.28
19,A47G A68U,1.17
20,A60G A66U,1.26
21,A11U U122C,0.19
22,C34U A69U,2.37
23,U100C U102A,2.36
24,A55G A63C,0.12

row,Variant,self-cleavage
1,A126G A129G,0.97
2,C6U A66G,1.33
3,A13G U72A,0.23
4,U49A U87A,1.78
5,U38A U100C,2.23
6,U43A A68G,1.25
7,A92U,1.71
8,A11G C71A,0.71
9,U38C U49A,1.45
10,U37G U131C,1.37
11,A66U A89G,1.7
12,A67U C113U,0.42
13,C71U U124C,0.06
14,U12A A54U,1.28
15,A60C G123A,1.98
16,A63G U87A,2.02
17,G75A C105U,0.01
18,U102G A117G,0.37
19,U122C A135U,1.06
20,U49A U70C,0.3
21,A5U U70A,1.23
22,A64G U100A,0.51
23,U2A U130C,0.85
24,U38A A47G,1.59

row,Variant,self-cleavage
1,U39A A67U,2.37
2,G99U A117G,0.36
3,A110G G137A,0.18
4,U49C U120A,1.64
5,A62G G106U,0.01
6,A4G U39C,1.46
7,U37A A96U,1.83
8,U37A A96G,2.31
9,A110G U124C,0.14
10,G28A U57C,0.4
11,G44A G83A,1.24
12,G8U A94G,1.98
13,A22C U131G,0.94
14,U19A A114U,0.04
15,A13U A98U,2.18
16,A56G U100C,2.18
17,A18U A67G,1.53
18,U2G A11U,1.51
19,A33G U72G,0.14
20,G119A A126G,1.98
21,A33C A126G,1.8
22,U39C G138A,1.78
23,G15A A47G,1.33
24,A92G A140G,1.69

row,Variant,self-cleavage
1,A86G A111G,0.02
2,G41C A64U,2.26
3,G20U U37C,1.37
4,U133C,1.29
5,G74A U103C,0.08
6,A86U U120C,1.11
7,A91C U132C,2.49
8,A98U A110U,1.67
9,G106A U122A,0.01
10,U133C A140U,2.09
11,A27G G28A,0.78
12,A90G U127C,0.13
13,U57A A78U,0.16
14,A69U G137U,2.12
15,A96C A111G,0.03
16,A64U U70C,1.06
17,C6U A64G,1.46
18,U43A U102C,2.2
19,A89U A114G,0.49
20,A60G C77U,2.13
21,U120C U122G,2.61
22,U9C A111U,0.09
23,U39A A82U,0.28
24,A68G U120C,0.65

row,Variant,self-cleavage
1,A56G A66C,1.76
2,A62G U132G,0.5
3,A23U A111G,0.04
4,U43C U139A,1.3
5,A18G A125G,0.94
6,A62G A67G,0.96
7,U72A,0.18
8,C17U U87C,0.7
9,G84U A110U,0.44
10,A82C C109U,0.07
11,G20U,1.53
12,C17A G20A,1.56
13,A5C U132C,1.97
14,G29A U139G,0.86
15,U130A U139C,0.78
16,A78G U97G,0.27
17,C101U U108C,0.01
18,A54G A95G,1.81
19,A64G A98G,0.59
20,U2C U72A,0.1
21,A66G A91G,1.04
22,A5U U72A,0.62
23,A30G A55G,1.14
24,U38C A59G,0.61

row,Variant,self-cleavage
1,U57C U70C,0.47
2,U57A A118G,1.37
3,A55G A82G,0.83
4,G14A A59G,1.27
5,A67G G104A,0.08
6,G29A U97C,1.22
7,U19A U100C,1.68
8,A62G A63G,1.21
9,U12C A54U,1.51
10,A51U U120C,0.47
11,A51G U100C,1.87
12,A18G G65U,1.18
13,A18C A60G,2.54
14,G8A C77U,1.72
15,A11G A129C,0.66
16,C112U A140U,0.01
17,A18G A68U,1.33
18,U38C U133A,1.64
19,A22G A24U,1.27
20,A56G,0.72
21,A78U G84C,0.11
22,A22G A68G,1.31
23,U49C C128A,1.11
24,U9C C112A,0.03

row,Variant,self-cleavage
1,A98U U127C,1.98
2,A68C U124C,1.22
3,A47U A66U,0.99
4,U39C A51U,2.29
5,U72A C128U,0.15
6,A30U G93A,1.63
7,A22G A98G,0.88
8,G14U A92G,1.2
9,U38C A78G,0.2
10,U26A C81U,0.19
11,A96G A110U,1.53
12,A24G A69G,1.31
13,A78G U120A,0.22
14,C101A A114G,0.02
15,A118C U130C,0.93
16,A47G U131A,0.62
17,A78G U139A,0.23
18,C34U A60G,1.29
19,U2A C10U,0.88
20,A13G U124C,0.57
21,U120C U127C,0.43
22,U12A A30U,1.11
23,U97G U108C,0
24,G7A U122C,0.84

row,Variant,self-cleavage
1,U19C A59G,1.55
2,G1A A114G,1.32
3,A11C U49C,1.57
4,A30G A95C,1.26
5,G7A U132C,1.2
6,A89U U97C,1.58
7,A22C A89C,1.57
8,A78G A140U,0.36
9,A95G,1.85
10,U102C A140G,2.39
11,A59U A89G,1.48
12,G65A U132C,0.58
13,A47U U108C,0.01
14,G15A A111G,0.01
15,C113A,0.03
16,A18G A54U,1.25
17,U26A U100A,0.98
18,G106A A110G,0.01
19,A47U A62U,1.36
20,A47G,0.96
21,A69G U72G,0.38
22,A4G A69U,1.14
23,C16U A95G,1.21
24,A33U A68G,1.28

row,Variant,self-cleavage
1,U2C U120A,1.03
2,A55U A111G,0.02
3,U132C U139A,0.99
4,A33G U132C,0.83
5,A91G U122A,0.96
6,U12C,1.01
7,G93U G123A,0.77
8,A23G A54G,0.6
9,A13G U57C,1.18
10,A24U A90G,1.63
11,A13G A86U,1.21
12,C32U A78G,0.53
13,U57C C121A,1.91
14,C61U U120A,2.02
15,U9C A135U,0.57
16,U39C U124C,1.25
17,A117G A118U,1.72
18,A18U U49C,1.47
19,A13G U108A,0.12
20,A47G A129G,0.64
21,A33C G73A,0.33
22,U37C U72C,0.26
23,A86U A129U,1.13
24,U2C A36U,1.11

row,Variant,self-cleavage
1,U3C A135G,0.99
2,U57C U122C,0.84
3,U43C A92G,1.24
4,A24G C35U,1.12
5,A92G U108G,0.02
6,C6A C10U,0.25
7,U120C A125G,0.43
8,G41A U122C,1.67
9,A90U A110G,0.08
10,A89U U130C,1.2
11,U43C U87C,0.35
12,A78C C109U,0.19
13,A59G A116C,0.07
14,A47G A67G,1.12
15,A66U A135G,1.83
16,G1A A64G,2.27
17,C35U A111G,0.05
18,U3C A47G,1.39
19,A55U,1.13
20,C6A A68G,1.14
21,A114U U124G,0.06
22,G41U A66G,1.11

# Source: the RNAGym collection of RNA variant scans (doi:10.7554/elife.90254)
